Target: Complement factor H (CFH) (human, UniProt P08603 19-1231)
Test: interdigitated electrode current-volt sandwich assay

Complement factor H (CFH), sequence (P08603 19-1231): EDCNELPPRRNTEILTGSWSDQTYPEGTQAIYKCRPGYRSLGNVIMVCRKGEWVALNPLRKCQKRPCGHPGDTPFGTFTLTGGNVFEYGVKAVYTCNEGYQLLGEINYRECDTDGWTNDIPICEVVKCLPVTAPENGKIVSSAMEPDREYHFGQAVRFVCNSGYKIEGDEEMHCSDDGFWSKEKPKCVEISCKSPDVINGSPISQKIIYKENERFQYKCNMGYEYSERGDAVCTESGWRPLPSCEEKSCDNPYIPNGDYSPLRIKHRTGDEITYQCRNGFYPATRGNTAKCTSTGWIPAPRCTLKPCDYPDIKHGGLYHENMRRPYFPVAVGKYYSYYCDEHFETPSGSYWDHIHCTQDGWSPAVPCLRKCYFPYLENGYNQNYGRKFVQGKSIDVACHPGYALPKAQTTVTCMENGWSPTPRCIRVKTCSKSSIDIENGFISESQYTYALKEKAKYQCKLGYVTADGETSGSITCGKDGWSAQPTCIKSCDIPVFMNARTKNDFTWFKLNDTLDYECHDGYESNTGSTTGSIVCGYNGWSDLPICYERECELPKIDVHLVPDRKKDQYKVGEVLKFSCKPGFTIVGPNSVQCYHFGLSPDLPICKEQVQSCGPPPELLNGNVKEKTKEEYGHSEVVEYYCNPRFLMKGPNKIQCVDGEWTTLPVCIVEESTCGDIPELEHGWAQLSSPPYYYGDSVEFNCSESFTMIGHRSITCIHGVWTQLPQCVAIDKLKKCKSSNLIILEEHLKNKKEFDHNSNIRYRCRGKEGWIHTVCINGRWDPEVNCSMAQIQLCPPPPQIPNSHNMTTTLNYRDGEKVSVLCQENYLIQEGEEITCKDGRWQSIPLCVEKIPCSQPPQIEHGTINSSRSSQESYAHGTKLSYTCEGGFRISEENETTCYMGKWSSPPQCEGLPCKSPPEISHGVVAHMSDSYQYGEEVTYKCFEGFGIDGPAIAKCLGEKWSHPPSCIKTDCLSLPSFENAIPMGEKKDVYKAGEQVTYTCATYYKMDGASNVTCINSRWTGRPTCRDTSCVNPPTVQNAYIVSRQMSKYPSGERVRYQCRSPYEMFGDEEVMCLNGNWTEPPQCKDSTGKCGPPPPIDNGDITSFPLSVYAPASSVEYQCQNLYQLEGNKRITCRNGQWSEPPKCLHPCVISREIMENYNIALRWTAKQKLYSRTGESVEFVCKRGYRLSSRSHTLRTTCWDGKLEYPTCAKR

**Q.** Does GCGGAGCGTGGCAGG (ssDNA, biotin (end not stated)) [anti-tau DNA aptamer] bind?
**A.** Result: no binding

Reference: article PMC11415702
